Experimental data as given in the supplement of paper PMC9112550, “Optimization of the antimicrobial peptide Bac7 by deep mutational scanning” (BMC Biology, 2022).

System: Escherichia coli TOP10
Assay: shrunken log2 fold change of peptide-encoding DNA abundance (4.5 h post-induction vs induction); higher = less antimicrobial activity (less host growth inhibition)
Settings: time post-induction: 4.5 h; library: site-saturation at positions 5, 18, 19, 20
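Note: peptides expressed intracellularly from a pBAD plasmid library in pooled LB shake-flask culture, induced with 0.3% L-arabinose, DNA abundance read by NGS, three biological replicates, DESeq2 with apeglm shrinkage.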

| Sequence | shrunken log2 fold change |
| --- | --- |
| RRIRQRPPRLPRPRPRPKRMPRP | -0.0373 |
| RRIRNRPPRLPRPRPRPILKPRP | 0.0926 |
| RRIRSRPPRLPRPRPRPTIVPRP | 0.148 |
| RRIRHRPPRLPRPRPRPNPKPRP | -0.0127 |
| RRIRPRPPRLPRPRPRPPDHPRP | 0.182 |
| RRIRRRPPRLPRPRPRPGIVPRP | -0.0478 |
| RRIRKRPPRLPRPRPRPGFVPRP | 0.259 |
| RRIRDRPPRLPRPRPRPHGHPRP | 0.0317 |
| RRIRDRPPRLPRPRPRPWGSPRP | -0.0321 |
| RRIRTRPPRLPRPRPRPHQMPRP | 0.0521 |
| RRIRFRPPRLPRPRPRPVFNPRP | -0.461 |
| RRIRERPPRLPRPRPRPRNEPRP | -0.473 |
| RRIRTRPPRLPRPRPRPASWPRP | 0.733 |
| RRIRDRPPRLPRPRPRPSNSPRP | -0.365 |
| RRIRQRPPRLPRPRPRPGADPRP | 0.47 |
| RRIRIRPPRLPRPRPRPQPCPRP | -0.0143 |
| RRIRPRPPRLPRPRPRPGSCPRP | 0.111 |
| RRIRCRPPRLPRPRPRPEKNPRP | 0.165 |
| RRIRARPPRLPRPRPRPAWGPRP | 0.616 |
| RRIRMRPPRLPRPRPRPSHDPRP | 0.0846 |
| RRIRSRPPRLPRPRPRPIDDPRP | -0.00277 |

| Sequence | shrunken log2 fold change |
| --- | --- |
| RRIRQRPPRLPRPRPRPEISPRP | 0.139 |
| RRIRLRPPRLPRPRPRPRIQPRP | 0.239 |
| RRIRKRPPRLPRPRPRPGALPRP | 0.656 |
| RRIRQRPPRLPRPRPRPCRQPRP | 0.0342 |
| RRIRSRPPRLPRPRPRPYSFPRP | -0.795 |
| RRIRERPPRLPRPRPRPHDIPRP | -0.0102 |
| RRIRPRPPRLPRPRPRPAQNPRP | -0.105 |
| RRIRPRPPRLPRPRPRPEGWPRP | 1.82 |
| RRIRGRPPRLPRPRPRPVHAPRP | 0.743 |
| RRIRIRPPRLPRPRPRPHEWPRP | 0.0272 |
| RRIRARPPRLPRPRPRPVPRPRP | 0.536 |
| RRIRGRPPRLPRPRPRPEIKPRP | 1.24 |
| RRIRVRPPRLPRPRPRPKWNPRP | -0.172 |
| RRIRTRPPRLPRPRPRPRAKPRP | 0.346 |
| RRIRKRPPRLPRPRPRPWKKPRP | 0.0118 |
| RRIRQRPPRLPRPRPRPSARPRP | -0.00609 |
| RRIRPRPPRLPRPRPRPHMCPRP | -0.082 |
| RRIRRRPPRLPRPRPRPCYFPRP | -0.0239 |
| RRIRQRPPRLPRPRPRPILNPRP | -0.098 |
| RRIRTRPPRLPRPRPRPLPFPRP | -0.518 |
| RRIRCRPPRLPRPRPRPTHYPRP | 0.513 |

| Sequence | shrunken log2 fold change |
| --- | --- |
| RRIRHRPPRLPRPRPRPLQCPRP | -0.0439 |
| RRIRIRPPRLPRPRPRPLTIPRP | -0.536 |
| RRIRKRPPRLPRPRPRPQIDPRP | 0.00239 |
| RRIRNRPPRLPRPRPRPTHDPRP | -0.219 |
| RRIRMRPPRLPRPRPRPGYMPRP | 0.0502 |
| RRIRGRPPRLPRPRPRPGDMPRP | 0.511 |
| RRIRKRPPRLPRPRPRPTNEPRP | 0.387 |
| RRIRCRPPRLPRPRPRPCKAPRP | -0.0437 |
| RRIRFRPPRLPRPRPRPGREPRP | 0.0157 |
| RRIRFRPPRLPRPRPRPAFDPRP | 0.128 |
| RRIRTRPPRLPRPRPRPHFAPRP | -0.227 |
| RRIRHRPPRLPRPRPRPDCGPRP | -0.131 |
| RRIRLRPPRLPRPRPRPHVQPRP | -0.528 |
| RRIRNRPPRLPRPRPRPTSIPRP | -0.531 |
| RRIRPRPPRLPRPRPRPCCNPRP | -0.301 |
| RRIRWRPPRLPRPRPRPCFVPRP | -0.144 |
| RRIRLRPPRLPRPRPRPSWNPRP | -0.342 |
| RRIRVRPPRLPRPRPRPYYSPRP | -0.235 |
| RRIRTRPPRLPRPRPRPWPVPRP | -0.105 |
| RRIRRRPPRLPRPRPRPLICPRP | 0.119 |
| RRIRSRPPRLPRPRPRPFTDPRP | -0.04 |
